Data from paper PMC6445466.

Target: BAD16-C (residues 204-352, B. afzelii strain PGau) (Borrelia afzelii strain PGau)
Test: SPR; Biacore T200, 25°C; borrelial protein immobilised by amine coupling; C1r as analyte, single-cycle kinetics, five-fold dilution series 1.6 to 1000 nM; HBS-T with 5 mM CaCl2; 1:1 kinetic fit; triplicate

B1: human C1r, full-length enzyme (enzyme)
chain: SIPIPQKLFGEVTSPLFPKPYPNNFETTTVITVPTGYRVKLVFQQFDLEPSEGCFYDYVKISADKKSLGRFCGQLGSPLGNPPGKKEFMSQGNKMLLTFHTDFSNEENGTIMFYKGFLAYYQAVDLDECASRSKSGEEDPQPQCQHLCHNYVGGYFCSCRPGYELQEDTHSCQAECSSELYTEASGYISSLEYPRSYPPDLRCNYSIRVERGLTLHLKFLEPFDIDDHQQVHCPYDQLQIYANGKNIGEFCGKQRPPDLDTSSNAVDLLFFTDESGDSRGWKLRYTTEIIKCPQPKTLDEFTIIQNLQPQYQFRDYFIATCKQGYQLIEGNQVLHSFTAVCQDDGTWHRAMPRCKIKDCGQPRNLPNGDFRYTTTMGVNTYKARIQYYCHEPYYKMQTRAGSRESEQGVYTCTAQGIWKNEQKGEKIPRCLPVCGKPVNPVEQRQRIIGGQKAKMGNFPWQVFTNIHGRGGGALLGDRWILTAAHTLYPKEHEAQSNASLDVFLGHTNVEELMKLGNHPIRRVSVHPDYRQDESYNFEGDIALLELENSVTLGPNLLPICLPDNDTFYDLGLMGYVSGFGVMEEKIAHDLRFVRLPVANPQACENWLRGKNRMDVFSQNMFCAGHPSLKQDACQGDSGGVFAVRDPNTDRWVATGIVSWGIGCSRGYGFYTKVLNYVDWIKKEMEEED
Binder B1 has a Kd of 2.2 nM, a koff of 4.3e-05 s⁻¹ and a kon of 19000 M⁻¹ s⁻¹.
